IntAct's records for PubMed 31243363

B1: Phospholipid-transporting ATPase DRS2 (Saccharomyces cerevisiae), P39524 (parent)
chain: MNDDRETPPKRKPGEDDTLFDIDFLDDTTSHSGSRSKVTNSHANANYIPPSHVLPEETIDLDADDDNIENDVHENLFMSNNHDDQTSWNANRFDSDAYQPQSLRAVKPPGLFARFGNGLKNAFTFKRKKGPESFEMNHYNAVTNNELDDNYLDSRNKFNIKILFNRYILRKNVGDAEGNGEPRVIHINDSLANSSFGYSDNHISTTKYNFATFLPKFLFQEFSKYANLFFLCTSAIQQVPHVSPTNRYTTIGTLLVVLIVSAMKECIEDIKRANSDKELNNSTAEIFSEAHDDFVEKRWIDIRVGDIIRVKSEEPIPADTIILSSSEPEGLCYIETANLDGETNLKIKQSRVETAKFIDVKTLKNMNGKVVSEQPNSSLYTYEGTMTLNDRQIPLSPDQMILRGATLRNTAWIFGLVIFTGHETKLLRNATATPIKRTAVEKIINRQIIALFTVLIVLILISSIGNVIMSTADAKHLSYLYLEGTNKAGLFFKDFLTFWILFSNLVPISLFVTVELIKYYQAFMIGSDLDLYYEKTDTPTVVRTSSLVEELGQIEYIFSDKTGTLTRNIMEFKSCSIAGHCYIDKIPEDKTATVEDGIEVGYRKFDDLKKKLNDPSDEDSPIINDFLTLLATCHTVIPEFQSDGSIKYQAASPDEGALVQGGADLGYKFIIRKPNSVTVLLEETGEEKEYQLLNICEFNSTRKRMSAIFRFPDGSIKLFCKGADTVILERLDDEANQYVEATMRHLEDYASEGLRTLCLAMRDISEGEYEEWNSIYNEAATTLDNRAEKLDEAANLIEKNLILIGATAIEDKLQDGVPETIHTLQEAGIKIWVLTGDRQETAINIGMSCRLLSEDMNLLIINEETRDDTERNLLEKINALNEHQLSTHDMNTLALVIDGKSLGFALEPELEDYLLTVAKLCKAVICCRVSPLQKALVVKMVKRKSSSLLLAIGDGANDVSMIQAAHVGVGISGMEGMQAARSADIAVGQFKFLKKLLLVHGSWSYQRISVAILYSFYKNTALYMTQFWYVFANAFSGQSIMESWTMSFYNLFFTVWPPFVIGVFDQFVSSRLLERYPQLYKLGQKGQFFSVYIFWGWIINGFFHSAIVFIGTILIYRYGFALNMHGELADHWSWGVTVYTTSVIIVLGKAALVTNQWTKFTLIAIPGSLLFWLIFFPIYASIFPHANISREYYGVVKHTYGSGVFWLTLIVLPIFALVRDFLWKYYKRMYEPETYHVIQEMQKYNISDSRPHVQQFQNAIRKVRQVQRMKKQRGFAFSQAEEGGQEKIVRMYDTTQKRGKYGELQDASANPFNDNNGLGSNDFESAEPFIENPFADGNQNSNRFSSSRDDISFDI
partner: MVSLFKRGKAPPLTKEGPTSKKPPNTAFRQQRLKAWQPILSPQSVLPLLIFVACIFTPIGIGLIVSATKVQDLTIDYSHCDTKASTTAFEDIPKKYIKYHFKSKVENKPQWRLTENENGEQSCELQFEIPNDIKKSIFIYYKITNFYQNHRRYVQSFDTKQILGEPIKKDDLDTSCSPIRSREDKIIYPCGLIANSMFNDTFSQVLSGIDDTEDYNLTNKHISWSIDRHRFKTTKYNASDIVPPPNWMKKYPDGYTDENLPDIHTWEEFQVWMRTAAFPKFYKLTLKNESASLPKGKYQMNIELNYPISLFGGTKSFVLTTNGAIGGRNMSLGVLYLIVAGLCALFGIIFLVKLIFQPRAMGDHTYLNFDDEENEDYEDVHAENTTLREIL

Variants of: B1
Conditions: with cdc50_yeast CDC50, P25656

Effect of a mutation on the interaction, with no effect:
Y1235A
Y1235F
H1236A
